In patent publication US6683162B2, “Targeted alpha particle therapy using actinium-255 conjugates” (Sloan Kettering Institute of Cancer Research, priority 2000, dated 2004):

What was measured:
[1] = test system: antigen positive cells (HL60); test: Cell based immunoreactivity assay, antigen positive cells; format: binding, human; settings: HL60, antigen excess, on ice
Method: (§1) A cell based immunoreactivity assay (binding of labeled antibody to antigen excess) was used to determine the percentage of HuM195 that retained its immunoreactivity after conjugation and purification. The assay was conducted with antigen positive cells (HL60, available from American Tissue Culture Collection [ATCC]) and antigen negative cells (Daudi, ATCC).
(§2) The cells were centrifuged, the supernatant removed and the cells resuspended to a density of 10^8 cells/ml in 2% w/v bovine serum albumin in phosphate buffered saline, pH 7.2 (PBS). Aliquots of cell suspension ([…]) were transferred to microcentrifuge tubes placed on ice to which purified ^225Ac-HuM195-DOTA (3 ng) was added. The cell suspensions were incubated for 30 min, centrifuged and the supernatant containing any unbound ^225Ac-HuM195-DOTA was transferred to a second microcentrifuge tube of cell suspension. The second tube was incubated on ice for 30 min. The first cell pellets were washed with PBS and the cells and washes saved for γ emission counting. The second set of cell suspensions were centrifuged, the supernatant removed and the pellets were washed with PBS. The set of supernate, cell pellets and washes were saved for counting. The percentage of radioactivity that was associated with the cells was then determined.

[2] = test system: antigen negative cells (Daudi); test: Cell based immunoreactivity assay, antigen negative cells; format: binding; settings: on ice
Method: as §1, §2

[3] = Toxicity of [225Ac]DOTA-HuM195 i.v. in cynamologous monkeys; format: in vivo, cynamologous monkey; settings: 9 months out
Method: Two male cynamologous monkeys (3-5 kg) were injected i.v. 9 months ago with an initial 0.002-0.005 mCi dose of [225Ac]DOTA-HuM195 per monkey and then 6 weeks later with a 0.017-0.020 mCi dose of [225Ac]DOTA-HuM195. Animals are followed by serial blood sampling and observation of activity and appearance as a function of time.

LNCaP tumor xenograft = test: Biodistribution of 225Ac/221Fr/213Bi in LNCaP tumor bearing mice; settings: for A2(o)/A2(eq) Bi-213 at sacrifice time / A2(o)/A2(eq) Fr-221 at sacrifice time / % ID/g Ac-225 / % ID/g Bi-213 / % ID/g Fr-221: 48 hour, mean; for A2(o)/A2(eq) Bi-213 at sacrifice time / A2(o)/A2(eq) Fr-221 at sacrifice time: daughter/parent ratio
Method: An [225Ac]DOTA-J591 biodistribution experiment was carried-out using a male athymic nude (8-12 weeks old) mouse (Taconic, Germantown, N.Y.) model with an i.m. xenograft of 5E6 LNCaP tumor cells in Matrigel (Becton Dickinson Labware, Bedford Mass.) implanted in the right hind leg. The tumors were allowed to grow for 4 weeks and then the mice were separated into two groups (n=12 per group). One group received approximately 0.55 mL of [225Ac]DOTA-J591 (350 nCi ^225Ac on 0.0035 mg J591) and the other group received the irrelevant control [225Ac]DOTA-HuM195 (350 nCi 225Ac on 0.0026 mg HuM195) via i.p. injection. Three to four animals from each group were sacrificed at 48 h and 72 h post injection. Blood and tissue samples including: heart, kidneys, lung, spleen, liver, stomach, intestine, and tumor were harvested, weighed and counted using a Packard Cobra Gamma Counter (Packard Instrument Co., Inc., Meriden, Conn.) with two energy windows, ^221Fr (185-250 KeV window) and ^213Bi (360-480 window). The percent of the injected dose per gram of tissue (% ID/g) was determined by measuring the activity in […] aliquots of each respective [^225Ac]mAb injectate in triplicate. After the initial 48 h time point data was analyzed, attention was focused on collection of blood, tumor, heart, kidney and small intestine samples as the need to rapidly sacrifice, harvest, and count was necessary in order to measure ^221Fr in the samples.
Using known methods (28), values of A2(o)/A2(eq) were determined for each tissue sample.

[4] = test system: human HL60 leukemia cells; test: In vitro cytotoxicity (LD50), HL60, tritiated thymidine incorporation; format: cell-based
Method: The potency and specificity of 225Ac-HuM195-DOTA was then evaluated in-vitro as a function of specific activity and activity concentration (FIG. 6). A suspension of HL60 cells were washed twice with complete media and then dispensed into a 96 well cell culture plate in complete media supplemented with 2% human serum. The volume was 100 μl and the cells were at a density of 5×10^5 cells/ml. Next a serial dilultion of purified ^225Ac-HuM195-DOTA was added to the wells. The diluent was complete media and volume added was 100 μl. The starting activity was 10 nCi/ml, which was diluted 5-fold for each subsequent tube. […] The cells were incubated for 2 days at 37° C., following which tritiated thymidine was added (0.5 pC, in 50 il complete media/well). The cells were incubated at 37° C. for an additional 5 h, then harvested using a Combi Cell Harvestor (Skatron Instruments). Cell viability was determined by analyzing the degree of tritiated thymidine incorporated into the DNA of the treated cells relative to control cells.
The potency and specificity of [225Ac]IgG for killing single cancer cells is determined using 5E4 cells in 0.2 mL per well in 96 well plates. Serial dilutions of [225Ac]IgG are added (triplicate) to the cells to yield final activity in the wells ranging from 74 kBl/mL to 37E-6 kB q/mL. Non-specific killing is measured after target cells are blocked with a 100-10000-fold excess of unlabeled IgG before plating and subsequent addition of [225Ac]IgG.

Q: What does the source list for 225Ac-HuM195-DOTA?
A: activity associated with the cells (immunoreactivity) [1]: 74%; activity retained by the cells (immunoreactivity) [2]: 2%; evidence of toxicity ([3]; i.v. 0.002-0.005 mCi then 0.017-0.020 mCi 6 weeks later): no evidence of toxicity; hepatic, renal and hematopoietic function ([3]; i.v.): did not change; 225Ac uptake in the liver (LNCaP tumor xenograft; 48 h, LNCaP tumor bearing mice, i.p.): less than 8%; A2(o)/A2(eq) Bi-213 at sacrifice time (LNCaP tumor xenograft; Blood): 0.04; A2(o)/A2(eq) Fr-221 at sacrifice time (LNCaP tumor xenograft; Blood): 0.13; % ID/g Ac-225 (LNCaP tumor xenograft; Blood): 13.5 % ID/g; % ID/g Bi-213 (LNCaP tumor xenograft; Blood): 0.55 % ID/g; % ID/g Fr-221 (LNCaP tumor xenograft; Blood): 0.18 % ID/g; A2(o)/A2(eq) Bi-213 at sacrifice time (LNCaP tumor xenograft; Heart): 0.99; A2(o)/A2(eq) Fr-221 at sacrifice time (LNCaP tumor xenograft; Heart): 1.6; % ID/g Ac-225 (LNCaP tumor xenograft; Heart): 3.9 % ID/g; % ID/g Bi-213 (LNCaP tumor xenograft; Heart): 3.9 % ID/g; % ID/g Fr-221 (LNCaP tumor xenograft; Heart): 6.1 % ID/g; A2(o)/A2(eq) Bi-213 at sacrifice time (LNCaP tumor xenograft; Kidneys): 10.0; A2(o)/A2(eq) Fr-221 at sacrifice time (LNCaP tumor xenograft; Kidneys): 16.8; % ID/g Ac-225 (LNCaP tumor xenograft; Kidneys): 4.7 % ID/g; % ID/g Bi-213 (LNCaP tumor xenograft; Kidneys): 46.5 % ID/g; % ID/g Fr-221 (LNCaP tumor xenograft; Kidneys): 72.8 % ID/g; A2(o)/A2(eq) Bi-213 at sacrifice time (LNCaP tumor xenograft; Liver): 0.87; A2(o)/A2(eq) Fr-221 at sacrifice time (LNCaP tumor xenograft; Liver): 0.70; % ID/g Ac-225 (LNCaP tumor xenograft; Liver): 7.7 % ID/g; % ID/g Bi-213 (LNCaP tumor xenograft; Liver): 6.5 % ID/g; % ID/g Fr-221 (LNCaP tumor xenograft; Liver): 5.5 % ID/g; A2(o)/A2(eq) Bi-213 at sacrifice time (LNCaP tumor xenograft; Sm. Int.): 4.0; A2(o)/A2(eq) Fr-221 at sacrifice time (LNCaP tumor xenograft; Sm. Int.): 13.3; % ID/g Ac-225 (LNCaP tumor xenograft; Sm. Int.): 1.6 % ID/g; % ID/g Bi-213 (LNCaP tumor xenograft; Sm. Int.): 6.3 % ID/g; % ID/g Fr-221 (LNCaP tumor xenograft; Sm. Int.): 18.7 % ID/g; A2(o)/A2(eq) Bi-213 at sacrifice time (LNCaP tumor xenograft; Tumor): 0.87; A2(o)/A2(eq) Fr-221 at sacrifice time (LNCaP tumor xenograft; Tumor): 0.83; % ID/g Ac-225 (LNCaP tumor xenograft; Tumor): 1.60 % ID/g; % ID/g Bi-213 (LNCaP tumor xenograft; Tumor): 5.0 % ID/g; % ID/g Fr-221 (LNCaP tumor xenograft; Tumor): 4.6 % ID/g; LD50 ([4]; HL60 (non-specific), excess unlabeled antibody, S.A. 0.089 GBq/g): 185.0 Bq/mL; LD50 ([4]; HL60 (specific), S.A. 8.9 GBq/g): 0.3 Bq/mL; LD50 ([4]; HL60, Ac-225 construct, S.A. 0.24 Ci/g): 8 pCi/mL; LD50 ([4]; HL60, specific activity 0.094 nCi/ng, 2 days at 37° C. then tritiated thymidine 5 h): about 1.3 nCi/ml
